Here are results for 7 variants from IntAct's records for PubMed 31515488.

The labels stand for the following.
B1: Phosphoserine phosphatase (Homo sapiens), P78330 (parent)
chain: MVSHSELRKLFYSADAVCFDVDSTVIREEGIDELAKICGVEDAVSEMTRRAMGGAVPFKAALTERLALIQPSREQVQRLIAEQPPHLTPGIRELVSRLQERNVQVFLISGGFRSIVEHVASKLNIPATNVFANRLKFYFNGEYAGFDETQPTAESGGKGKVIKLLKEKFHFKKIIMIGDGATDMEACPPADAFIGFGGNVIRQQVKDNAKWYITDFVELLGELEE
partner: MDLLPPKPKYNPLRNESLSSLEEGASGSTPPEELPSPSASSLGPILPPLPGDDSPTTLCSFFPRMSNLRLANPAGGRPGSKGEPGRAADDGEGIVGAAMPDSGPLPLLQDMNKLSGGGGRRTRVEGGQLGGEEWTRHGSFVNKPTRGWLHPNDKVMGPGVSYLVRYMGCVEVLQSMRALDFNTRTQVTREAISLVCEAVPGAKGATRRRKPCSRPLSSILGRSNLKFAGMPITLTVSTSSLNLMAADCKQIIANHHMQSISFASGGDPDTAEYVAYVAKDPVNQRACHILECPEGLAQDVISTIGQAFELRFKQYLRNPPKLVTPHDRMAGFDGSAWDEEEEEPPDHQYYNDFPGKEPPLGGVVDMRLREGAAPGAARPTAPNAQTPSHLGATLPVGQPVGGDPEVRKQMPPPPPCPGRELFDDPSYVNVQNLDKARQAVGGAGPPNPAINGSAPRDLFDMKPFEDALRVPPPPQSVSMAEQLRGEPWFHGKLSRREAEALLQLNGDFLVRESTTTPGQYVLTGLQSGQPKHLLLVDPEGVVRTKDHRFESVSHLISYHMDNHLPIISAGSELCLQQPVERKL
B2: Coiled-coil domain-containing protein 42 (Homo sapiens), Q96M95 (parent)
chain: MSLGIMEEEDLAEYFRLQYGERLLQMLQKLPNVEGASESPSIWLLEKKKETEIMHQTMVQKKKMFQRRMETLNLRWEELGVKEAQLKAHIQKSEQFIQENDQKRIRAMKKANKERELKCQHMQELTKRKQEMVALRLEHQRLSAKLKDYYIFNKYLEKVVENSEFEEIHEVIARYKTLVSMRHDLMQSAQEGQEKIERAKARLARYMEEKDDEILQQNNELARLQMRFDRARSNVIFWESRWAHIQNTAAKKTLLLGTIKMATLNLFQIVSKHLKEVTEVALEDTHKQLDMIQQFIQDRSDIWAEVKKKEQQRVRI
B3: Spermatogenesis-associated protein 2 (Homo sapiens), Q9UM82 (parent)
chain: MGKPSSMDTKFKDDLFRKYVQFHESKVDTTTSRQRPGSDECLRVAASTLLSLHKVDPFYRFRLIQFYEVVESSLRSLSSSSLRALHGAFSMLETVGINLFLYPWKKEFRSIKTYTGPFVYYVKSTLLEEDIRAILSCMGYTPELGTAYKLRELVETLQVKMVSFELFLAKVECEQMLEIHSQVKDKGYSELDIVSERKSSAEDVRGCSDALRRRAEGREHLTASMSRVALQKSASERAAKDYYKPRVTKPSRSVDAYDSYWESRKPPLKASLSLRKEPVATDVGDDLKDEIIRPSPSLLTMASSPHGSPDVLPPASPSNGPALLRGTYFSTQDDVDLYTDSEPRATYRRQDALRPDVWLLRNDAHSLYHKRSPPAKESALSKCQSCGLSCSSSLCQRCDSLLTCPPASKPSAFPSKASTHDSLAHGASLREKYPGQTQGLDRLPHLHSKSKPSTTPTSRCGFCNRPGATNTCTQCSKVSCDACLSAYHYDPCYKKSELHKFMPNNQLNYKSTQLSHLVYR
partner: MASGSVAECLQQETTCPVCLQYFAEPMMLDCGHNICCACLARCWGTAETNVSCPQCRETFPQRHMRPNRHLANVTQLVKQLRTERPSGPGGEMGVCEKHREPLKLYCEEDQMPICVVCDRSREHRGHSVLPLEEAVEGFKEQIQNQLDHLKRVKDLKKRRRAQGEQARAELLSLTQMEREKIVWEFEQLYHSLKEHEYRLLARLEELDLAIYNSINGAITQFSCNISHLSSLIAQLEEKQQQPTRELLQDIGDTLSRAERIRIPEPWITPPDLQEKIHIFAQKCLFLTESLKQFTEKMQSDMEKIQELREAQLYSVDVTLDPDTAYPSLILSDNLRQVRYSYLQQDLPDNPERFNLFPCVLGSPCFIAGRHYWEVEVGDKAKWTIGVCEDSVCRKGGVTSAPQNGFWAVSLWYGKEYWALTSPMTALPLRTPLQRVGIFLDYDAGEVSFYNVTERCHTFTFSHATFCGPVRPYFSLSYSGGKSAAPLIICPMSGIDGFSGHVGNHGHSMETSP
B4: Huntingtin-interacting protein 1 (Homo sapiens), O00291 (parent)
chain: MDRMASSMKQVPNPLPKVLSRRGVGAGLEAAERESFERTQTVSINKAINTQEVAVKEKHARTCILGTHHEKGAQTFWSVVNRLPLSSNAVLCWKFCHVFHKLLRDGHPNVLKDSLRYRNELSDMSRMWGHLSEGYGQLCSIYLKLLRTKMEYHTKNPRFPGNLQMSDRQLDEAGESDVNNFFQLTVEMFDYLECELNLFQTVFNSLDMSRSVSVTAAGQCRLAPLIQVILDCSHLYDYTVKLLFKLHSCLPADTLQGHRDRFMEQFTKLKDLFYRSSNLQYFKRLIQIPQLPENPPNFLRASALSEHISPVVVIPAEASSPDSEPVLEKDDLMDMDASQQNLFDNKFDDIFGSSFSSDPFNFNSQNGVNKDEKDHLIERLYREISGLKAQLENMKTESQRVVLQLKGHVSELEADLAEQQHLRQQAADDCEFLRAELDELRRQREDTEKAQRSLSEIERKAQANEQRYSKLKEKYSELVQNHADLLRKNAEVTKQVSMARQAQVDLEREKKELEDSLERISDQGQRKTQEQLEVLESLKQELATSQRELQVLQGSLETSAQSEANWAAEFAELEKERDSLVSGAAHREEELSALRKELQDTQLKLASTEESMCQLAKDQRKMLLVGSRKAAEQVIQDALNQLEEPPLISCAGSADHLLSTVTSISSCIEQLEKSWSQYLACPEDISGLLHSITLLAHLTSDAIAHGATTCLRAPPEPADSLTEACKQYGRETLAYLASLEEEGSLENADSTAMRNCLSKIKAIGEELLPRGLDIKQEELGDLVDKEMAATSAAIETATARIEEMLSKSRAGDTGVKLEVNERILGCCTSLMQAIQVLIVASKDLQREIVESGRGTASPKEFYAKNSRWTEGLISASKAVGWGATVMVDAADLVVQGRGKFEELMVCSHEIAASTAQLVAASKVKADKDSPNLAQLQQASRGVNQATAGVVASTISGKSQIEETDNMDFSSMTLTQIKRQEMDSQVRVLELENELQKERQKLGELRKKHYELAGVAEGWEEGTEASPPTLQEVVTEKE
partner: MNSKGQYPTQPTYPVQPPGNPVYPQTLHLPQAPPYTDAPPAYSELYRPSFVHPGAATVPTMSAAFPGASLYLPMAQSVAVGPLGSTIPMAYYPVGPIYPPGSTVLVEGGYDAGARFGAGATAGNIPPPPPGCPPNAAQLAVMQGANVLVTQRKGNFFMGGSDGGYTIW
B5: Hematopoietic prostaglandin D synthase (Homo sapiens), O60760 (parent)
chain: MPNYKLTYFNMRGRAEIIRYIFAYLDIQYEDHRIEQADWPEIKSTLPFGKIPILEVDGLTLHQSLAIARYLTKNTDLAGNTEMEQCHVDAIVDTLDDFMSCFPWAEKKQDVKEQMFNELLTYNAPHLMQDLDTYLGGREWLIGNSVTWADFYWEICSTTLLVFKPDLLDNHPRLVTLRKKVQAIPAVANWIKRRPQTKL
partner: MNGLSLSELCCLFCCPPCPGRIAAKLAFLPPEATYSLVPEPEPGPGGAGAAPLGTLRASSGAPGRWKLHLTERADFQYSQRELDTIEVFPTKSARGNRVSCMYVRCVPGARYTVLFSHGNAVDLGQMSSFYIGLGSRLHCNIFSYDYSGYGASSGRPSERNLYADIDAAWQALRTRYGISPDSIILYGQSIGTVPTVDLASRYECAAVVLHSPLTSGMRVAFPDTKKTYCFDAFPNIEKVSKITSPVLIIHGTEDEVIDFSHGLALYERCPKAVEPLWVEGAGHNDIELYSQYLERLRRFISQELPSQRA

In one assay the parent is B1. The note with it: with shc1_human SHC1, P29353.
Consider MVSHSELRKLFYSADAVCFDVDSTVIREEGIDELAKICGVEDAVSEMTRRAMGGAVPFKAALTERLALIQPSREQVQRLIAEQPPHLTPGIRELVSRLQERNVQVFLISGGFRSIVEHVASKLNIPATNVFANRLKFYFNGEYAGFDETQPIAESGGKGKVIKLLKEKFHFKKIIMIGDGATDMEACPPADAFIGFGGNVIRQQVKDNAKWYITDFVELLGELEE [T152I], for which the “effect of a mutation on the interaction” value is on record as “with no effect”.
Consider MVSHSELRKLFYSADAVCFDVDSTVIREEGIDELAKICGVEDAVSEMTRRAMGGAVPFKAALTERLALIQPSREQVQRLIAEQPPHLTPGIRELVSRLQERNVQVFLISGGFRSIVEHVASKLNIPATNVFANRLKFYFNGEYAGFDEMQPTAESGGKGKVIKLLKEKFHFKKIIMIGDGATDMEACPPADAFIGFGGNVIRQQVKDNAKWYITDFVELLGELEE [T149M], for which the “effect of a mutation on the interaction” value was “with no effect”.

Variants of B2 are the subject of a further assay. The settings on record: with trim1_human MID2, Q9UJV3.
Sequence of trim1_human MID2, Q9UJV3 (Q9UJV3 whole entry): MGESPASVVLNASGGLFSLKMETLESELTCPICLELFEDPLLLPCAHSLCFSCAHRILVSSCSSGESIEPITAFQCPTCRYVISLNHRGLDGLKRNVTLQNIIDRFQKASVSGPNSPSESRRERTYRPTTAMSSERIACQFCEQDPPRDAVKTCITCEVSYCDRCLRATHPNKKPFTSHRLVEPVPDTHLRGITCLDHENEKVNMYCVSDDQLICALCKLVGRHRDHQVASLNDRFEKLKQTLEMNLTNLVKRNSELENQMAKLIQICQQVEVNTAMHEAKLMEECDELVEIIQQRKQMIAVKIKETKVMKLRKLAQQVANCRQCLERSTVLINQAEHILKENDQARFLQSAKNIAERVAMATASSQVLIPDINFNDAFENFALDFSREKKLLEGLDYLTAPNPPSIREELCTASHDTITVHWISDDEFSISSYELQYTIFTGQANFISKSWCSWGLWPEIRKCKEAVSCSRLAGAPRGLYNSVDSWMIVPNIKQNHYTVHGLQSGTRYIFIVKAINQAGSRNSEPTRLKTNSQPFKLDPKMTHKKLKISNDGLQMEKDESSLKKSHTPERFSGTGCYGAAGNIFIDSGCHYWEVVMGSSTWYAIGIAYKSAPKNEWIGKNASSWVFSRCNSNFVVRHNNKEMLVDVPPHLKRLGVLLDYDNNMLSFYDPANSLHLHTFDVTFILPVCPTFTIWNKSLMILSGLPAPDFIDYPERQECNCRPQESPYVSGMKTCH
Turning to MSLGIMEEEDLAEYFRLQYGERLLQMLQKLPNVEGASESPSIWLLEKKKETEIMHQTMVQKKKMFQRRMETLNLRWEELGVKEAQLKAHIQKSEQFIQENDQKRIRAMKKANKERELKCQHMQELTKHKQEMVALRLEHQRLSAKLKDYYIFNKYLEKVVENSEFEEIHEVIARYKTLVSMRHDLMQSAQEGQEKIERAKARLARYMEEKDDEILQQNNELARLQMRFDRARSNVIFWESRWAHIQNTAAKKTLLLGTIKMATLNLFQIVSKHLKEVTEVALEDTHKQLDMIQQFIQDRSDIWAEVKKKEQQRVRI [R128H], the “effect of a mutation on the interaction” value is “with no effect”.
Still for that read-out and setting: then MSLGIMEEEDLAEYFRLQYGERLLQMLQKLPNVEGASESPSIWLLEKKKETEIMHQTMVQKKKMFQRRMETLNLRWEELGVKEAQLKAHIQKSEQFIQENDQKRIRAMKKANKERELKCQHMQELTKRKQEMVALRLEHQRLSTKLKDYYIFNKYLEKVVENSEFEEIHEVIARYKTLVSMRHDLMQSAQEGQEKIERAKARLARYMEEKDDEILQQNNELARLQMRFDRARSNVIFWESRWAHIQNTAAKKTLLLGTIKMATLNLFQIVSKHLKEVTEVALEDTHKQLDMIQQFIQDRSDIWAEVKKKEQQRVRI [A144T], with “with no effect”.

Variants of B2 are the subject of a further assay. The note with it: with tfp11_human TFIP11, Q9UBB9.
Sequence of tfp11_human TFIP11, Q9UBB9 (Q9UBB9 whole entry): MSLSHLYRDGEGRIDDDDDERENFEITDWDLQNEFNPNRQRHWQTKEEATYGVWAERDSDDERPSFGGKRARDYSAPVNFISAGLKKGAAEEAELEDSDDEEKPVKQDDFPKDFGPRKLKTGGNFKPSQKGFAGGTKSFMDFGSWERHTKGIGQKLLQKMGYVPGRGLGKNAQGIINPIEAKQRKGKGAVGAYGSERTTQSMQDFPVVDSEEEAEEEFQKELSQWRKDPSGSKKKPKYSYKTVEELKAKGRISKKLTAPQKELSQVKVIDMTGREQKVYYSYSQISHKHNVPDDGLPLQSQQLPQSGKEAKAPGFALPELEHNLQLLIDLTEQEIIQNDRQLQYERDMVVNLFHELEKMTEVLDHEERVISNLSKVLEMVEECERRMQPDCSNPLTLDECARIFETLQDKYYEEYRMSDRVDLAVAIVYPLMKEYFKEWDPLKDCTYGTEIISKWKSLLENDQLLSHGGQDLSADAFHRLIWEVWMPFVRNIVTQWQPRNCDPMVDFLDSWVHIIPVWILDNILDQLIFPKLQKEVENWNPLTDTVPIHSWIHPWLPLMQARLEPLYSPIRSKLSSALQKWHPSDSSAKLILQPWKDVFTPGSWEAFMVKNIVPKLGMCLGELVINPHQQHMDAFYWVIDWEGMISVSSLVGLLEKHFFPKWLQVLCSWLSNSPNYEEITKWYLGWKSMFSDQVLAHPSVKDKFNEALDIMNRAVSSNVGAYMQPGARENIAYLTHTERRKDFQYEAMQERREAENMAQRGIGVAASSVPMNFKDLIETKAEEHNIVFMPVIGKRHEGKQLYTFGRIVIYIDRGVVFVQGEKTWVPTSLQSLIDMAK
In the case of MSLGIMEEEDLAEYFRLQYGERLLQMLQKLPNVEGASESPSIWLLEKKKETEIMHQTMVQKKKMFQRRMETLNLRWEELGVKEAQLKAHIQKSEQFIQENDQKRIRAMKKANKERELKCQHMQELTKHKQEMVALRLEHQRLSAKLKDYYIFNKYLEKVVENSEFEEIHEVIARYKTLVSMRHDLMQSAQEGQEKIERAKARLARYMEEKDDEILQQNNELARLQMRFDRARSNVIFWESRWAHIQNTAAKKTLLLGTIKMATLNLFQIVSKHLKEVTEVALEDTHKQLDMIQQFIQDRSDIWAEVKKKEQQRVRI [R128H], the “effect of a mutation on the interaction” value is “with no effect”.
Turning to MSLGIMEEEDLAEYFRLQYGERLLQMLQKLPNVEGASESPSIWLLEKKKETEIMHQTMVQKKKMFQRRMETLNLRWEELGVKEAQLKAHIQKSEQFIQENDQKRIRAMKKANKERELKCQHMQELTKRKQEMVALRLEHQRLSTKLKDYYIFNKYLEKVVENSEFEEIHEVIARYKTLVSMRHDLMQSAQEGQEKIERAKARLARYMEEKDDEILQQNNELARLQMRFDRARSNVIFWESRWAHIQNTAAKKTLLLGTIKMATLNLFQIVSKHLKEVTEVALEDTHKQLDMIQQFIQDRSDIWAEVKKKEQQRVRI [A144T], the “effect of a mutation on the interaction” value was “with no effect”.

In another assay the parent is B3. The settings on record: with tri27_human TRIM27, P14373.
Regarding MGKPSSMDTKFKDDLFRKYVQFHESKVDTTTSRQRPGSDECLRVAASTLLSLHKVDPFYRFRLIQFYEVVESSLRSLSSSSLRALHGAFSMLETVGINLFLYPWKKEFRSIKTYTGPFVYYVKSTLLEEDIRAILSCMGYTPELGTAYKLRELVETLQVKMVSFELFLAKVECEQMLEIHSQVKDKGYSELDIVSERKSSAEDVRGCSDALRRRAEGREHLTASMSRVALQKSASERAAKDYYKPRVTKPSRSVDAYDSYWESRKPPLKASLSLRKEPVATDVGDDLKDEIIRPSPSLLTMASSPHGSPDVLPPASPSNGPALLRGTYFSTQDDVDLYTDSEPRATYRRQDALRPDVWLLRNDAHSLYHKRSPPAKESALSKCQSCGLSCSSSLCQRCDSLLTCPPASKPSAFPSKASTHDSLAHGASLREKYPGQTQGLDRFPHLHSKSKPSTTPTSRCGFCNRPGATNTCTQCSKVSCDACLSAYHYDPCYKKSELHKFMPNNQLNYKSTQLSHLVYR [L443F], the “effect of a mutation on the interaction” value is given as “disrupting interaction strength”.

Variants of B4 are the subject of another assay. The note with it: with dazp2_human DAZAP2, Q15038.
As to M263K, the “effect of a mutation on the interaction” value was “with no effect”.

In another assay the parent is B5. The note with it: with ab17a_human ABHD17A.
Turning to MPNYKLTYFNMRGRAEIIRYIFAYLDIQYEDHRIEQADWPEIKSTLPFGKIPILEVDGLTLHQSLAIARYLTKNTDLAGNTEMEQCHVDAIVDTLDDFMSCFPWAEKKQDVKEQMFNELLTYNAPHLTQDLDTYLGGREWLIGNSVTWADFYWEICSTTLLVFKPDLLDNHPRLVTLRKKVQAIPAVANWIKRRPQTKL [M128T], the “effect of a mutation on the interaction” value is “disrupting interaction strength”.
